Test results reported in paper PMC8219380, “The discriminatory power of the T cell receptor” (eLife, 2021).
One block for each molecule: values may come before it.

How the values were obtained:
IFNAR1 and IFNAR2 = assay: Discrimination power from published data: type I IFN receptor; conditions: n 13, ref Thomas C. 2011
Excerpt: (§1) The broad method was to obtain a measure of ligand potency from each study. […] If not explicitly provided, we estimated ligand potency as PX , which was defined by the concentration of ligand that produced X response. To do this, we drew a horizontal line at X on a provided dose-response graph and estimated the ligand concentration where the data intercepted the horizontal line. The disadvantage with this method is that ligand potency was estimated based on the single representative graph provided in the study.
(§2) Each study often contained or cited a study that contained estimates of KD or koff for the specific TCR/pMHC interactions used in the study. We only included studies where monomeric SPR binding data was available to avoid multimeric binding parameters (e.g. when using tetramers). However, when analysing discrimination by other non-TCR receptors, we included binding data from various methods (e.g. SPR, radio labelled ligands) provided they were monomeric measurements. The use of SPR is important for weak interactions, such as TCR/pMHC, but various methods are available for higher-affinity interactions.
(§3) The plot of potency over KD or k off was fit using linear regression on log-transformed axes. We reported the slope of the fit (i.e. the discrimination power, α), the goodness-of-fit measure ( R^2 ), and the p-value for the null hypothesis that the slope is zero (i.e. α=0 ). […]

ErbB2 = assay: Discrimination power from published data: ErbB2 CARs; conditions: n 4, ref Liu 2015
Excerpt: as §1, §2, §3

c-Kit = assay: Discrimination power from published data: c-Kit; conditions: n 4, ref Ho 2017
Excerpt: as §1, §2, §3

M3 muscarinic receptor = assay: Discrimination power from published data: M3 receptor; conditions: n 7, ref Sykes 2009
Excerpt: as §1, §2, §3

[1] = system: IL-2 receptor subunit β (IL-2Rb); assay: Discrimination power from published data: IL-2 receptor; conditions: n 4, ref Levin 2012
Excerpt: as §1, §2, §3

IL-13Ra1 = assay: Discrimination power from published data: IL-13 receptor; conditions: ref Moraga 2015
Excerpt: as §1, §2
(§4) The plot of potency over KD or k off was fit using linear regression on log-transformed axes. We reported the slope of the fit (i.e. the discrimination power, α), the goodness-of-fit measure ( R^2 ), and the p-value for the null hypothesis that the slope is zero (i.e. α=0 ). We defined significance using the threshold of p=0.05.
Cytokine receptors transduce signals by ligand-induced dimerisation of receptor subunits. We identified five studies that produced ligands with mutations that modified binding to either one or both receptor subunits and either reported potency or provided dose-response curves from which potency can be extracted ([Levin et al., 2012]; [Moraga et al., 2015]; [Thomas et al., 2011a]; [Mendoza et al., 2017]; [Martinez-Fabregas et al., 2019]). […] By measuring cellular responses, such as upregulation of CD86 on monocytes, dose-response curves were generated for each IL-13 variant, allowing us to determine ligand potency. We observed a significant correlation between potency and KD (Figure 6A). We repeated the analysis for each study (Figure 6—source data 1 ID 1–13). In studies that included ligands with mutations to both receptor interfaces, we plotted potency over the product of the dissociation constants to each interface since this serves as an estimate of the overall affinity (i.e. KD1×KD2 ).

CXC chemokine receptor 3 = assay: Discrimination power from published data: CXCR3; conditions: ref Heise 2005
Excerpt: as §1, §2, §4
Therefore, ligand affinity may not correlate to functional potency. Instead, we focused on identifying studies that used ligands that were confirmed to bind to the same interface with different affinities. As an example, Sykes et al. used seven agonists to the muscarinic M3 receptor and confirmed they all bound to the same interface using a binding competition assay ([Sykes et al., 2009]). Using titrations of each ligand, they examined the binding of GTPγS to CHO-M3 membrane as a measure of response (Figure 6C, left). […]

gp130 = assay: Discrimination power from published data: IL-6 receptor; conditions: ns, ref Martinez-Fabregas 2019
Excerpt: as §1, §2, §3

Molecule: IFNAR1/IFNAR2
Power (discrimination power) (IFNAR1 and IFNAR2; ID 7, output antiviral): 0.7137 | Power (discrimination power) (IFNAR1 and IFNAR2; ID 8, output antiproliferation): 1.329

Molecule: ErB2
Power (discrimination power) (ErbB2; ID 26, output CD107): 1.058 | Power (discrimination power) (ErbB2; ID 27, output Proliferation, ns): 0.6409

Molecule: c-Kit: receptor tyrosine kinase activated by SCF
Power (discrimination power) (c-Kit; ID 15, output pERK): 0.834 | Power (discrimination power) (c-Kit; ID 16, output pAKT): 0.882

Molecule: M3 muscarinic receptor: M3 muscarinic receptor, set of agonists
Power (discrimination power) (M3 muscarinic receptor; ID 19, output Calcium, ns): 0.7717 | Power (discrimination power) (M3 muscarinic receptor; ID 20, output GTPyS Binding): 0.5478

B1: IL-2R beta (protein, UniProt P14784 27-551, looked up)
Interleukin-2 receptor …: AVNGTSQFTCFYNSRANISCVWSQDGALQDTSCQVHAWPDRRRWNQTCELLPVSQASWACNLILGAPDSQKLTTVDIVTLRVLCREGVRWRVMAIQDFKPFENLRLMAPISLQVVHVETHRCNISWEISQASHYFERHLEFEARTLSPGHTWEEAPLLTLKQKQEWICLETLTPDTQYEFQVRVKPLQGEFTTWSPWSQPLAFRTKPAALGKDTIPWLGHLLVGLSGAFGFIILVYLLINCRNTGPWLKKVLKCNTPDPSKFFSQLSSEHGGDVQKWLSSPFPSSSFSPGGLAPEISPLEVLERDKVTQLLLQQDKVPEPASLSSNHSLTSCFTNQGYFFFHLPDALEIEACQVYFTYDPYSEEDPDEGVAGAPTGSSPQPLQPLSGEDDAYCTFPSRDDLLLFSPSLLGGPSPPSTAPGGSGAGEERMPPSLQERVPRDWDPQPLGPPTPGVPDLVDFQPPPELVLREAGEEVPDAGPREGVSFPWSRPPGQGEFRALNARLPLNTDAYLSLQELQGQDPTHLV
Power (discrimination power) ([1]; ID 1, output CD25 – pSTAT5 (NK cells)): 0.546 | Power (discrimination power) ([1]; ID 2, output CD25 – %pSTAT5 (T cells)): 0.743

B4: IL-13Rα1 (protein, UniProt P78552 22-427, looked up)
Interleukin-13 receptor …: GGGGAAPTETQPPVTNLSVSVENLCTVIWTWNPPEGASSNCSLWYFSHFGDKQDKKIAPETRRSIEVPLNERICLQVGSQCSTNESEKPSILVEKCISPPEGDPESAVTELQCIWHNLSYMKCSWLPGRNTSPDTNYTLYYWHRSLEKIHQCENIFREGQYFGCSFDLTKVKDSSFEQHSVQIMVKDNAGKIKPSFNIVPLTSRVKPDPPHIKNLSFHNDDLYVQWENPQNFISRCLFYEVEVNNSQTETHNVFYVQEAKCENPEFERNVENTSCFMVPGVLPDTLNTVRIRVKTNKLCYEDDKLWSNWSQEMSIGKKRNSTLYITMLLIVPVIVAGAIIVLLLYLKRLKIIIFPPIPDPGKIFKEMFGDQNDDTLHWKKYDIYEKQTKEETDSVVLIENLKKASQ
Power (discrimination power) (IL-13Ra1; ID 3, output pSTAT6, n 9): 0.471 | Power (discrimination power) (IL-13Ra1; ID 6, output CD205, n 9): 0.421

Further lines, results first:

Power (discrimination power) (IL-13Ra1; ID 4, output Proliferation, n 9, ns): 0.394 | Power (discrimination power) (IL-13Ra1; ID 5, output CD86): 0.442
B2: IL-13Rα2 (protein, UniProt Q14627 27-380, looked up)
Interleukin-13 receptor …: DTEIKVNPPQDFEIVDPGYLGYLYLQWQPPLSLDHFKECTVEYELKYRNIGSETWKTIITKNLHYKDGFDLNKGIEAKIHTLLPWQCTNGSEVQSSWAETTYWISPQGIPETKVQDMDCVYYNWQYLLCSWKPGIGVLLDTNYNLFYWYEGLDHALQCVDYIKADGQNIGCRFPYLEASDYKDFYICVNGSSENKPIRSSYFTFQLQNIVKPLPPVYLTFTRESSCEIKLKWSIPLGPIPARCFDYEIEIREDDTTLVTATVENETYTLKTTNETRQLCFVVRSKVNIYCSDDGIWSEWSDKQCWEGEDLSKKTLLRFWLPFGFILILVIFVTGLLLRKPNTYPKMIPEFFCDT

Power (discrimination power) (CXC chemokine receptor 3; ID 22, output Calcium mobilization, n 3): 0.7346 | Power (discrimination power) (CXC chemokine receptor 3; ID 23, output GTP gamma S Binding, n 3): 1.056 | Power (discrimination power) (CXC chemokine receptor 3; ID 24, output Migrated Cells, n 2, ns, Perfect line): 0.5609
B3: CXC chemokine receptor 3: CXCR3 with chemokine ligands (protein, UniProt P49682 1-368, looked up)
C-X-C chemokine receptor type …: MVLEVSDHQVLNDAEVAALLENFSSSYDYGENESDSCCTSPPCPQDFSLNFDRAFLPALYSLLFLLGLLGNGAVAAVLLSRRTALSSTDTFLLHLAVADTLLVLTLPLWAVDAAVQWVFGSGLCKVAGALFNINFYAGALLLACISFDRYLNIVHATQLYRRGPPARVTLTCLAVWGLCLLFALPDFIFLSAHHDERLNATHCQYNFPQVGRTALRVLQLVAGFLLPLLVMAYCYAHILAVLLVSRGQRRLRAMRLVVVVVVAFALCWTPYHLVVLVDILMDLGALARNCGRESRVDVAKSVTSGLGYMHCCLNPLLYAFVGVKFRERMWMLLLRLGCPNQRGLQRQPSSSRRDSSWSETSEASYSGL

Power (discrimination power) (gp130; ID 12, output pSTAT1, n 3): 0.5438 | Power (discrimination power) (gp130; ID 13, output pSTAT3, n 4): 0.5194
B5: gp130 (and IL6R alpha) (protein, UniProt P40189 23-918; P08887 20-468, looked up)
Interleukin-6 receptor … 1: ELLDPCGYISPESPVVQLHSNFTAVCVLKEKCMDYFHVNANYIVWKTNHFTIPKEQYTIINRTASSVTFTDIASLNIQLTCNILTFGQLEQNVYGITIISGLPPEKPKNLSCIVNEGKKMRCEWDGGRETHLETNFTLKSEWATHKFADCKAKRDTPTSCTVDYSTVYFVNIEVWVEAENALGKVTSDHINFDPVYKVKPNPPHNLSVINSEELSSILKLTWTNPSIKSVIILKYNIQYRTKDASTWSQIPPEDTASTRSSFTVQDLKPFTEYVFRIRCMKEDGKGYWSDWSEEASGITYEDRPSKAPSFWYKIDPSHTQGYRTVQLVWKTLPPFEANGKILDYEVTLTRWKSHLQNYTVNATKLTVNLTNDRYLATLTVRNLVGKSDAAVLTIPACDFQATHPVMDLKAFPKDNMLWVEWTTPRESVKKYILEWCVLSDKAPCITDWQQEDGTVHRTYLRGNLAESKCYLITVTPVYADGPGSPESIKAYLKQAPPSKGPTVRTKKVGKNEAVLEWDQLPVDVQNGFIRNYTIFYRTIIGNETAVNVDSSHTEYTLSSLTSDTLYMVRMAAYTDEGGKDGPEFTFTTPKFAQGEIEAIVVPVCLAFLLTTLLGVLFCFNKRDLIKKHIWPNVPDPSKSHIAQWSPHTPPRHNFNSKDQMYSDGNFTDVSVVEIEANDKKPFPEDLKSLDLFKKEKINTEGHSSGIGGSSCMSSSRPSISSSDENESSQNTSSTVQYSTVVHSGYRHQVPSVQVFSRSESTQPLLDSEERPEDLQLVDHVDGGDGILPRQQYFKQNCSQHESSPDISHFERSKQVSSVNEEDFVRLKQQISDHISQSCGSGQMKMFQEVSAADAFGPGTEGQVERFETVGMEAATDEGMPKSYLPQTVRQGGYMPQ
Interleukin-6 receptor … 2: LAPRRCPAQEVARGVLTSLPGDSVTLTCPGVEPEDNATVHWVLRKPAAGSHPSRWAGMGRRLLLRSVQLHDSGNYSCYRAGRPAGTVHLLVDVPPEEPQLSCFRKSPLSNVVCEWGPRSTPSLTTKAVLLVRKFQNSPAEDFQEPCQYSQESQKFSCQLAVPEGDSSFYIVSMCVASSVGSKFSKTQTFQGCGILQPDPPANITVTAVARNPRWLSVTWQDPHSWNSSFYRLRFELRYRAERSKTFTTWMVKDLQHHCVIHDAWSGLRHVVQLRAQEEFGQGEWSEWSPEAMGTPWTESRSPPAENEVSTPMQALTTNKDDDNILFRDSANATSLPVQDSSSVPLPTFLVAGGSLAFGTLLCIAIVLRFKKTWKLRALKEGKTSMHPPYSLGQLVPERPRPTPVLVPLISPPVSPSSLGSDNTSSHNRPDARDPRSPYDISNTDYFFPR
